# Reference: the nanobody polyreactivity screen of Harvey et al. (2022)
# Experiment: yeast display, Sf9 membrane polyspecificity reagent, FACS + sequencing; frameworks hold sequencing errors
# Method in brief: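 A synthetic nanobody library was expressed on Saccharomyces cerevisiae BJ5465 by galactose induction for 36–48 hours. The library was stained for 1 hour at 4 °C with 10% biotinylated, detergent-solubilized Sf9 membrane reagent and enriched with streptavidin microbeads before FACS. Low and high (top ~1%) gates were set on anti-HA fluorescence for expression and streptavidin fluorescence for reagent binding, and each polyreactivity label reflects the gate of origin.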
row,Sequence,polyreactivity (PSR sort gate)
1,QVQLVESGGGLVQAGGSLRLSCAASGRIFRTNAMGWYRQAPGKERELVASINSDGSTNYADSVKGRFTISRDNAKNTVYLQMNSLKPDDTAVYYCAAGYFWGRIKYYYWGQCTQVTVSS,high polyreactivity
2,QVQLVESGGGLVQAGGSLRLSCAASGRIFRTYAMGWYRQAPGKERELVASISWGGGSRTYADSVKGRFTISRDNAKNTVYLQMNSLKPEDTGVYYCAADVHYTFGMDYWGQGTQVTVSS,high polyreactivity
3,QVQLVESGGGLVQAGGSLRLSCAASGRIFRVNTMGWYRQAPGKERELVAAISTSGGTTYYADSVKGRFTISRDNAKNTVYIQLNSLKPEDTAVYYCNASYLTRRDGYIEDAIYDYWGQGTQVTVSS,low polyreactivity
4,QVQLVESGGGLVQAGGSLRLSCAASGRIFRVNTMGWYRQSPGKERELVAAIRSSGTRTYYADSVKGRFTISRDNAKNTVYLQMNSLKPEDTAVYYCAATGRRGSGYYYWGQGTQVTVSS,high polyreactivity
5,QVQLVESGGGLVQAGGSLRLSCAASGRIFRVYAMGWYRQAPGKERELVAAINRSGGTTYYADSVKGRFTISRDNAKHTVYLQMNSLKPEDTAVYYCNAPVRRDVAYGYWGQGTQVTVSS,high polyreactivity
6,QVQLVESGGGLVQAGGSLRLSCAASGRIFRVYAMGWYRQAPGKERELVAAISWSGGRTYYADSVKGRFTISRDNAKNTVYLQMNSLKPEDTAVYYCAAVSCYALGFDYWGQGTQVTVSS,high polyreactivity
7,QVQLVESGGGLVQAGGSLRLSCAASGRIFRVYAMGWYRQAPGKERELVASISSGGSTNYADSVKGRFTISRENAKNTVYLQMNSLKPEDTAVYYCAADYWYRLFWYYGAPLDYWGQGTQVTVSS,low polyreactivity
8,QVQLVESGGGLVQAGGSLRLSCAASGRIFRWNAMGWYRQAPGKERELVAAISSSGGRTYYADSVKGRFTISRDTAKNTVYLQMNSLKPEDTAVYYCAAYPFSDEYDYWGQGTQVTVSS,high polyreactivity
9,QVQLVESGGGLVQAGGSLRLSCAASGRIFRWNAMGWYRQAPGKERELVAAISWNGGRTYYADSVKGRFTISRDNAKNTVYLQMNSLKPEDTAVYYCAAPHSVPDLHSGDYWGQGSQVTVSS,low polyreactivity
10,QVQLVESGGGLVQAGGSLRLSCAASGRIFRWNAMGWYRQAPGKERELVAVISSGGSTNYADSVKGRFTISRDNAKNTVYLQMNSLKPEDTAVYYCAADEGYVWPYYGWGFGKYDYWGQGTQVTVSS,low polyreactivity
11,QVQLVESGGGLVQAGGSLRLSCAASGRIFRWYAMGWYRQAPGKERELVAAISWSGGRTYYADSVKGRFTISRDNAKNTVYFQMNSLKPEDTAVYYCAAEGAIPRYYIGGVDYWGQGTQVTVSS,high polyreactivity
12,QVQLVESGGGLVQAGGSLRLSCAASGRIFRWYAMGWYRQAPGKERELVAAISYSGGSTYYADSVKGRFTISRDNAKNTVYLQMNSLKPEDTAVYYCAAATYYKFDYWGQGTQVTVSS,high polyreactivity
13,QVQLVESGGGLVQAGGSLRLSCAASGRIFRWYAMGWYRQAPGKERELVATISSTGGSTYYADSVKGRFTLSRDNAKNTVYLQMNSLKPEDTAVYYCNAVVYGIFLYAWYDYWGQGTQVTVSS,low polyreactivity
14,QVQLVESGGGLVQAGGSLRLSCAASGRIFRYNAMGWSRQAPGKERELVAAISRRGGTTYYADSVKGRFTISRDNAKNTVYLQMNSLKPEDTAVYDCAAQYRQRRHDYWGQGTQVTVSS,high polyreactivity
15,QVQLVESGGGLVQAGGSLRLSCAASGRIFRYNAMGWYRQAPGKERELVAAITRSGGRTYYADSVKGRFTISRDNAKYTVYLQMNSLKPEDTAVYYCAADKYPSSPYVGDVDYWGQGTQVTVSS,high polyreactivity
16,QVQLVESGGGLVQAGGSLRLSCAASGRIFRYNAMGWYRQAPGKGRELVAAITWDGGSTYYADSVKGRFTISRDNAKYTVYLQMNSLKPEYTAVYYCKAVTRSYYSDYYWGQGTQVTVSS,high polyreactivity
17,QVQLVESGGGLVQAGGSLRLSCAASGRIFRYYAMGCYRQAPGKERELVAAITRGGSTNYADSVKGRFTISRDNAKNTVYLQMNSLKPEDTAVYYCAAAYRGRYKYYYWGQGSQVTVSS,high polyreactivity
18,QVQLVESGGGLVQAGGSLRLSCAASGRIFRYYAMGSYRQAPGKERELVAAISRSGGSTYYADSVKGRFTISRDNAKNTVYLQMNSLKPEDTAVYSCAARLAGRGSSSSRVVRTGGYWGQGTQVTVSS,high polyreactivity
19,QVQLVESGGGLVQAGGSLRLSCAASGRIFRYYAMGWYRQAPGIERELVAAISYRGGSTYYADSVKGRFTISRDNAKNTVYLQMNSLKPEDTAVYYCNIVPRIDTRYDYWGQGTQVTVSS,high polyreactivity
20,QVQLVESGGGLVQAGGSLRLSCAASGRIFRYYAMGWYRQAPGKERELVAAIRSGGSTNYADSVKGRFTISRDNATNTVYLQLNSLKPEDTAVYYCNARYRYFKGGYWGQGTQVTVAS,high polyreactivity
21,QVQLVESGGGLVQAGGSLRLSCAASGRIFRYYAMGWYRQAPGKERELVAAISRSGSTNYADSVKGRFTISRDNAKNTVYLQMNSLKPEDTAVYYCAADSNYLYFWRRYKRMDYWGQGTQVTVSS,high polyreactivity

row,Sequence,polyreactivity (PSR sort gate)
1,QVQLVESGGGLVQAGGSLRLSCAASGRIFRYYAMGWYRQAPGKERELVAAITGRGTSTYYADSVKGRFTISRDNAKNTVYVQMNSLKPEDTAVYYCAAGSVLRYWAGDYWGQGTQVTVSS,low polyreactivity
2,QVQLVESGGGLVQAGGSLRLSCAASGRIFRYYAMGWYRQAPGKERELVAAITRGGSTNYADSVKGRFTISRDNAKNTVYLQMNSLKPEDTAVYYCATRQSWYPRWMDYWGQGTQVTVSS,high polyreactivity
3,QVQLVESGGGLVQAGGSLRLSCAASGRIFRYYAMGWYRQAPGKERELVAGISWRGSSTYYADSVKGRFTISRDNAKNTVYLQMNSLKPADTAVYYCNRDLSIIPVTGGRFYYWGQGTQVTVSS,high polyreactivity
4,QVQLVESGGGLVQAGGSLRLSCAASGRIFRYYAMGWYRQAPGKERELVATIDWSVGSTYYADSVKGRFTISRDNAKNTVYLQMNSLKPEDTAVYYCAKRGPQVWTFDYDSSGQGTQVTVSS,low polyreactivity
5,QVQLVESGGGLVQAGGSLRLSCAASGRIFRYYAMGWYRQAPGKETELVAAISKSGGGTFYADSVKGRFTISRDNAKNPVYLQMNSLKPEDTAVYYCAARDKGLGKHDYWGQGTQVTVSS,high polyreactivity
6,QVQLVESGGGLVQAGGSLRLSCAASGRIFRYYAMGWYRQAPWKERELVAVINWSGGSTYYADSVKGRFTISRDNAKNTVYLLMNSLKPEDTAVYYCNVYSVYPQFNYWGQGTQVTVSS,high polyreactivity
7,QVQLVESGGGLVQAGGSLRLSCAASGRIFRYYVMGWYRHAPGKEREFVASISGRGASTYYADSVKGRFTISRDNAKNTVYLLMNSLKPEDTAVYYCNADVWLLSYFPEYDYWGQGTQVTVSS,low polyreactivity
8,QVQLVESGGGLVQAGGSLRLSCAASGRIFSANAMGWYRQAPGKERELVATISTGGGRTYYADSVKGRFTISRDNAKNTVYLQMNSLKPVDTAVYYCNATRNYARVRYYYWGQGTQVTVSS,high polyreactivity
9,QVQLVESGGGLVQAGGSLRLSCAASGRIFSAYAMGWYRQAPGKEREFVAAISARGGSTNYADSVKGRFTISRDNAKNTVYLQMNSLNPEDTAVYYCNDRYVQWYWIAKVIHIDNDYWGQGTQVTVSS,low polyreactivity
10,QVQLVESGGGLVQAGGSLRLSCAASGRIFSAYAMGWYRQAPGKERELVAAITLSDGSTYYADSVKGRFTISRDNAKNTVYLQMNSLKPEDTAVYYCNADWYAYPYGYWGQGTQVTVSS,low polyreactivity
11,QVQLVESGGGLVQAGGSLRLSCAASGRIFSDYAMGWYRQAPGKERELVAAISWGGGRTYYADSVKGRFTISRDNAKNTVYLQMNSLKPEDTAVYYCNRGTVNSWARGYWGQGTQVTVSS,high polyreactivity
12,QVQLVESGGGLVQAGGSLRLSCAASGRIFSEYAMGWYRQAPGKERELVAAITRRGGSTYYADSVKGRFTISRDNAKNTVYLQMNSLKPEDTAVYYCNALLTGGYQDSYPDDYWGQGTQVTVSS,high polyreactivity
13,QVQLVESGGGLVQAGGSLRLSCAASGRIFSFNAMGWYRQAPGKERELVAGITDSGGSTYYADSVKGRFTISRDNAKNTVYSQMNSLKPEDTAVYYCNAEWPYSRVRDYFYAYDYWGQGTQVTVSS,low polyreactivity
14,QVQLVESGGGLVQAGGSLRLSCAASGRIFSFNAMGWYRQAPGKERELVATIRTDGTTNYADSVKGRFTISRDNAKNTVYLQMNSLKPEDSAVYYCATDSGWSTYDYWGQGTQVTVSS,high polyreactivity
15,QVQLVESGGGLVQAGGSLRLSCAASGRIFSFYSMGWYRQAPAKERELVATISKRAGSTYYADSVKGRFTISRDNAKNTVYLQMNSLKPEDTAVYYCAARKWYYASSRWRDYWGQGTQVTVSS,high polyreactivity
16,QVQLVESGGGLVQAGGSLRLSCAASGRIFSFYTKGWYRQEPGKERHLVAANSGSGGSTYYADSVKGRFTISRDNAKNTVYLQMISLKPEDTEFYYCAAGYGFRYYLYDYWGQGTQVTVSS,high polyreactivity
17,QVQLVESGGGLVQAGGSLRLSCAASGRIFSFYTMGWYRQAPGKERELVAAISSGGRTYYADSVKGRFTISRDNEKNTVYLQMNSLKPEDTAVYYCAAGSHYAFYYWGQGTQVTVSS,high polyreactivity
18,QVQLVESGGGLVQAGGSLRLSCAASGRIFSGNAMGWYRQAPGKERELVAAISRGGSTDYADSVKGRFTISRDNAMNTVYLQMNSLKPEDTAVYYCAARVNGKRRRYDYWGQGTQVTVSS,high polyreactivity
19,QVQLVESGGGLVQAGGSLRLSCAASGRIFSGNAMGWYRQAPGKERELVAAITWSGSSTFYADSVKGRFTISRDNAKNTVYLQMNSLKPEDTAVYYCAVDSSSPVRPHTDEDYWGQGTQVTVSS,low polyreactivity
20,QVQLVESGGGLVQAGGSLRLSCAASGRIFSGYAMGWYRQAPGKERELVAAITSGGSTNYADSVKGRFTISRDNAKNTVYLQMNSLKPEDTAVYYCAADSREVSTTAYYYWGQRTQVTVSS,low polyreactivity
